Experimental data reported in patent US12098206B2, “PDGF receptor antibody and use thereof” (Seoul National University R&DB Foundation, priority 2018, dated 2024).

How the values were obtained:
neovascularization [1] = assay: Oxygen-induced retinal disease animal model; assay type: in vivo, C57BL/6 mice; settings: complex with cot-duo; 1 uL into the vitreous cavity, 1 nM and 10 nM; FIG. 9
Procedure: C57BL/6 mice on 7th day after birth were reared in a high-concentration oxygen (75%) chamber for 5 days, and transferred to a normal oxygen breeding facility on 12th day to create an environment for retinopathy of premature baby.
On the 14th day after birth, 1 uL of each bispecific antibody scFv-Cκ-scFv, and the complex of the bispecific antibody scFv-Cκ-scFv fusion protein and cot-duo were injected into the vitreous cavity at a concentration of 1 nM and 10 nM, respectively. To label blood vessels, isolectin B4-594 (1:100; 121413, Invitrogen) was treated on the retinal flat mount.

NIH3T3 cells = assay: Internalization analysis by confocal microscopy in NIH3T3 cells; assay type: cell-based, mouse; settings: 10 μg/mL, 37° C., 30 minutes, FIG. 4c
Procedure: The bispecific antibody of scFv-Cκ-scFv fusion protein was analyzed with a confocal microscope for visualizing internalization. NIH3T3 cells were treated with the bispecific antibody of scFv-Cκ-scFv (10 μg/mL) diluted in DMEM containing 10% FBS, and internalized at 37° C. for 30 minutes. After washing the cells 3 times with cold PBS, acidic buffer (0.2 M acetic acid, 0.5 M sodium chloride) was treated at room temperature for 5 minutes to remove the antibody bound to the cell surface. Cells were washed twice with cold PBS, fixed with 4% paraformaldehyde for 10 minutes, and then subjected to immunofluorescence staining as previously described [J. M. Lim et al., J. Cell. Biol. 210 (2015) 23].
Briefly, to block antibodies having non-specific reaction, cells were incubated in PBS containing 5% horse serum and 0.1% Triton X-100 for 30 minutes, and 2 μg/mL FITC-anti human Cκ antibody (TB28-2, BD Biosciences) was added at room temperature for 30 minutes. To image the initial endosomes, the cells were washed 3 times with PBS, incubated with PBS containing 5% horse serum and 0.1% Triton X-100 for 30 minutes, and then incubated with ati-RabS antibody diluted to 1:200 (C8B1, Cell Signaling Technology, Danvers, MA, USA). Alexa Fluor 546 goat anti-rabbit IgG (A-11035, Invitrogen) was sequentially treated. Cells were treated with 0.2 μg/mL DAPI to detect DNA. Confocal microscopy images were obtained using a Zeiss LSM 880 microscope, and images were analyzed with Zen software (Carl Zeiss, Thornwood, NY, USA).
To measure the cellular internalization of the bispecific antibody of scFv-Cκ-scFv, anti-mPDGFR-β x cotinine scFv-Cκ-scFv fusion protein was incubated in NIH3T3 cells, and then treated with FITC-anti-human Cκ antibody and endosome-specific antibody. It was imaged using a confocal microscope. […] When the images were merged, the present inventors confirmed that the fluorescence of the three antibody clones and the endosome-specific antibody were co-localized.

MOLT-4 cells = assay: Flow cytometry binding to MOLT-4 cells not expressing mPDGFR-β; settings: 100 nM; FIG. 6
Procedure: The present inventors tested the binding ability of the bispecific antibody of scFv-Cκ-scFv fusion proteins in MOLT-4 cells not expressing mPDGFR-β by flow cytometry analysis. MOLT-4 cells were cultured with a bispecific antibody of scFv-Cκ-scFv fusion protein (100 nM) at 4° C. for 1 hour. After washing as described above, the detection was conducted by treating with an APC-anti human Cκ antibody. The MOLT-4 cells were purchased from the Korea Cell Line Bank and prepared by culturing in RPMI-1640 (Welgene, Seoul, Korea) medium added by 10% fetal bovine serum, 1% penicillin, and streptomycin.

neovascularization [2] = assay: Laser-induced choroidal neovascularization animal model; assay type: in vivo, mice; settings: complex with cot-duo; 1 uL into the vitreous cavity, 10 nM; FIG. 10
Procedure: After anesthetizing the mice, the retina of the mouse was irradiated with an indirect ophthalmoscope system (ILOODA) laser in a 300 um spot size with 400 mW intensity, 50 ms duration, and 810 nm wavelength to induce destruction of Bruch's membrane.
After 4 days of laser irradiation, 1 uL of each bispecific antibody scFv-Cκ-scFv, and complex of the bispecific antibody scFv-Cκ-scFv fusion protein and the cot-duo was injected into the vitreous cavity at a concentration of 10 nM. After 7 days of laser irradiation, the eyes were removed to obtain retinal pigment epithelial-choroid-scleral tissue, and immunofluorescence staining was performed with isolectin B4 antibody conjugated to Alexa Fluor 594 to determine the extent of the choroidal neovascular membrane. The neovascularization inhibition ability of the scFv-Cκ-scFv fusion protein and the cot-duo complex was confirmed. To quantitatively analyze the extent of the choroidal neovascular membrane, the ImageJ program (NIH) was used.

mPDGFR-β and cotinine = target: T1, mPDGFR-β and cotinine (Mus musculus, UniProt P05622); assay: Enzyme immunoassay, simultaneous binding to cotinine and mPDGFR-β; settings: cotinine-BSA coated wells, then mPDGFR-β-Fc chimera; FIG. 3d
T1 construct: mPDGFR-β
T1 sequence (P05622 32-530): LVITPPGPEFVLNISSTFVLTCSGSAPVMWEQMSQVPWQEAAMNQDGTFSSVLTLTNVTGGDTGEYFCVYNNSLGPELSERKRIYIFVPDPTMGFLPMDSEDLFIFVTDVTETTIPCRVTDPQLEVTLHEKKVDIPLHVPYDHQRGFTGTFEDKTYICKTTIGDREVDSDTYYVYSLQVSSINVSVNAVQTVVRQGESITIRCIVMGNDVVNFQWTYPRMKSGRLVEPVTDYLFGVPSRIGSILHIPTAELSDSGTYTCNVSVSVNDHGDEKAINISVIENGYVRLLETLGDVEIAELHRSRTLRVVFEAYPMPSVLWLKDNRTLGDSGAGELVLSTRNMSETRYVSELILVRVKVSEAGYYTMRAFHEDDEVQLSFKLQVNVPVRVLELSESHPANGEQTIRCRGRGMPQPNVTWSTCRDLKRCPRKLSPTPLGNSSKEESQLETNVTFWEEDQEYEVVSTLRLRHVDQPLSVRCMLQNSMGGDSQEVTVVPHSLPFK
Procedure: In order to confirm whether the bispecific antibody has simultaneous binding ability to both cotinine and mPDGFR-β, anti-mPDGFR-β x cotinine scFv-Cκ-scFv fusion protein was reacted in wells coated with cotinine-BSA. Washing was performed for each process, and mPDGFR-β-Fc chimeric protein and HRP-anti human Fc antibody were sequentially incubated.

B1: PRb-CN01: anti-mPDGFR-β chicken scFv clone (VH SEQ ID NO 7, VL SEQ ID NO 8), tested as scFv-Cκ-anti-cotinine scFv bispecific antibody (antibody, V domains shown)
VH: AVTLDESGGGLQTPGGALSLVCKASGFTFSDRAMHWVRQAPGKGLEWVGLITNTGGSTNYGAAVKGRATISRDNGQSTVRLQLNNLRAEDTGTYYCTRGVGSWAHGGRIDAWGHGTEVIVSS
VL: LTQPSSVSANPGETVKITCSGGSGSYGWFQQKSPGSAPVTVIYSNNQRPSDIPSRFSGSKSGSTNTLTITGVQAEDEAIYYCGTRDSSYVGIFGAGTTLTVL
modifications: VH of PRb-CN01; VL of PRb-CN01
For B1, the inhibition of neovascularization (neovascularization [1]) was “inhibited neovascularization in a concentration-dependent manner”, the cellular internalization (NIH3T3 cells) was “Intracellular fluorescence was detected” and the “binding to MOLT-4 cells” value (MOLT-4 cells) was “neither PRb-CN01 nor the anti-HER2 bispecific antibody of scFv-Cκ-scFv fusion antibody binds”. For the same molecule, the inhibition of neovascularization (neovascularization [2]) was “inhibited neovascularization” and the “simultaneous binding to mPDGFR-β and cotinine” value (mPDGFR-β and cotinine) was “simultaneously bound to mPDGFR-β and cotinine”.
